Data published in US20220002436A1 (DENALI THERAPEUTICS, published 2022).
Where a chain is given by its changes, count along the chain named. Blank lines part the entries; values can stand above or below the binder they belong to.

Key:
[1] = biological target: T1, HER2 extracellular domain (human, UniProt P04626 23-652); experiment: SPR (Biacore T200 or 8K), captured via anti-human IgG (Fc), recombinant HER2 extracellular domain as analyte, 1:1 kinetic fit
T1 construct: extracellular domain; also called HER2 ECD; HER2-ECD
Method: (§1) Affinities of mAbs and TfR-binding Fc polypeptides were measured by SPR using a Biacore T200 or a Biacore 8K. Biacore™ Series S CM5 sensor chips were immobilized with monoclonal mouse anti-human IgG (Fc) antibody for HER2 affinity measurements or mouse anti-human Fab for TfR affinity measurements (human antibody or Fab capture kit from GE Healthcare). Serial 3-fold dilutions of analyte (recombinant HER2 extracellular domain or recombinant TfR apical domain) were injected at a flow rate of 30 μL/min. Each sample was analyzed using a 3-minute association and a 10-minute dissociation. After each injection, the chip was regenerated using 3 M MgCl₂. Binding response was corrected by subtracting the RU from a flow cell capturing an irrelevant IgG at similar density. A 1:1 Languir model of simultaneous fitting of kₒₙ and koff was used for kinetics analysis.

Human TfR apical domain [2] = biological target: T2, Human TfR apical domain (human, UniProt P02786 198-378); experiment: SPR (Biacore T200 or 8K), captured via anti-human Fab, recombinant TfR apical domain as analyte, steady-state affinity
T2 construct: also called apical hTfR; human apical hTfR
T2 sequence (P02786 198-378 limits assumed): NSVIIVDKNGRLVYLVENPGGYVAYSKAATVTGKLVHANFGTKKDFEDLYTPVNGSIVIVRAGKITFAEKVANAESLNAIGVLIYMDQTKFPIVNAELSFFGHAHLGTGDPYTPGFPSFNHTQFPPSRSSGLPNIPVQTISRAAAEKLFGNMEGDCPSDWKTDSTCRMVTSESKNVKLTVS
Method: as §1

Human TfR apical domain [3] = biological target: T2, Human TfR apical domain; experiment: SPR (Biacore), apical hTfR
Human TfR apical domain [4] = biological target: T2, Human TfR apical domain; experiment: SPR (Biacore 8K), fusion protein captured with Human Fab Capture Kit, human TfR apical domain as analyte, 1:1 kinetic fit
Method: The affinities of Fc polypeptide dimer-antibody variable region fusion proteins for human TfR apical domain and HER2 ECD were determined by surface plasmon resonance using a Biacore™ 8K. Fc polypeptide dimer-antibody variable region fusion proteins were captured using a Human Fab Capture Kit (GE, #28-9583-25) on Biacore™ Series S CM5 sensor chips (GE, #29149604) for measurement of human TfR apical domain binding, or using a Human Fc capture Kit (GE, #29234600) for measurement of human HER2-ECD binding (ACROBiosystems, HE2-H5225). Serial 3-fold dilutions of each antigen were injected at a flow rate of 30 μL/min. The binding of the antigens to captured Fc polypeptide dimer-antibody variable region fusion proteins was monitored for 30 to 300 seconds and then their dissociation was monitored for 30-4,200 seconds in HBS-EP+ running buffer. Binding responses were corrected by subtracting the RU from a blank flow cell. A 1:1 Languir model of simultaneous fitting of kₒₙ and koff was used for kinetics analysis.

[5] = biological target: HER2 on HER2-positive cancer cells (BT474, OE19, SK-BR-3) (human, UniProt P04626 23-1255); experiment: cell-based or functional assay
Human TfR apical domain [6] = biological target: T2, Human TfR apical domain; experiment: SPR (Biacore), antibody captured via anti-human Fab, recombinant TfR apical domain as analyte; the table footnote says NB = no binding
Method: as §1

B2: HER2_DII-35.23.1.1^cisLALA (bispecific antibody, human IgG1, kappa, L234A L235A)
heavy 1: EVQLVESGGGLVQPGGSLRLSCAASGFTFTDYTMDWVRQAPGKGLEWVADVNPNSGGSIYNQRFKGRFTLSVDRSKNTLYLQMNSLRAEDTAVYYCARNLGPSFYFDYWGQGTLVTVSSASTKGPSVFPLAPSSKSTSGGTAALGCLVKDYFPEPVTVSWNSGALTSGVHTFPAVLQSSGLYSLSSVVTVPSSSLGTQTYICNVNHKPSNTKVDKKVEPKSCDKTHTCPPCPAPEAAGGPSVFLFPPKPKDTLMISRTPEVTCVVVDVSHEDPEVKFNWYVDGVEVHNAKTKPREEQYNSTYRVVSVLTVLHQDWLNGKEYKCKVSNKALPAPIEKTISKAKGQPREPQVYTLPPSRDELTKNQVSLWCLVKGFYPSDIAVEWESFGTEWSNYKTTPPVLDSDGSFFLYSKLTVSKEEWQQGFVFSCSVMHEALHNHYTQKSLSLSPGK
heavy 2: not shown
light: not shown
notes: Fc polypeptide dimer-Fab fusion; the second heavy chain is a hole Fc without a TfR site; also called ATV35.23.1.1:Her2_DII huIgG1.LALA.knob
- Kd (Human TfR apical domain [3]): 620 nM
- Kd (Human TfR apical domain [4]): 534 nM

B3: HER2_DII-35.23.4^cisLALA (bispecific antibody, human IgG1, kappa, L234A L235A)
heavy 1: B2 heavy 1 with F386Y
heavy 2: not shown
light: not shown
notes: also called ATV:HER2-DII; ATV:-HER2-DII
- IC50, BT474 cell viability (growth inhibition assay) [5]: 1.17 nM
- IC50, OE19 cell viability (growth inhibition assay) [5]: 0.725 nM
- Kd (Human TfR apical domain [2]): 450 nM
- Kd (Human TfR apical domain [4]): 445 nM

Continued, values first:

- Kd [1]: 7.5 nM
- koff [1]: 0.00105 s⁻¹
- kon [1]: 139000 M⁻¹ s⁻¹
- Kd (Human TfR apical domain [2]): 370 nM
B1: HER2_DI-35.23.4^cisLALA (bispecific antibody, human IgG1, kappa, L234A L235A)
heavy 1: QVQLQQPGAELVRPGASVKLSCKASGYSFTGYWMNWLKQRPGQGLEWIGMIHPSDSEIRANQKFRDKATLTVDKSSTTAYMQLSSPTSEDSAVYYCARGTYDGGFEYWGQGTTLTVSSASTKGPSVFPLAPSSKSTSGGTAALGCLVKDYFPEPVTVSWNSGALTSGVHTFPAVLQSSGLYSLSSVVTVPSSSLGTQTYICNVNHKPSNTKVDKKVEPKSCDKTHTCPPCPAPEAAGGPSVFLFPPKPKDTLMISRTPEVTCVVVDVSHEDPEVKFNWYVDGVEVHNAKTKPREEQYNSTYRVVSVLTVLHQDWLNGKEYKCKVSNKALPAPIEKTISKAKGQPREPQVYTLPPSRDELTKNQVSLWCLVKGFYPSDIAVEWESYGTEWSNYKTTPPVLDSDGSFFLYSKLTVSKEEWQQGFVFSCSVMHEALHNHYTQKSLSLSPGK
heavy 2: not shown
light: DIVLTQSPASLVVSLGQRATISCRASQSVSGSRFTYMHWYQQKPGQPPKLLIKYASILESGVPARFSGGGSGTDFTLNIHPVEEDDTATYYCQHSWEIPPWTFGGGTKLEIKRTVAAPSVFIFPPSDEQLKSGTASVVCLLNNFYPREAKVQWKVDNALQSGNSQESVTEQDSKDSTYSLSSTLTLSKADYEKHKVYACEVTHQGLSSPVTKSFNRGEC
notes: Fc polypeptide dimer-Fab fusion; the hole chain has no TfR site and no LALA; also called ATV:HER2-DI; ATV:-HER2-DI

- Kd [1]: 6.5 nM
- koff [1]: 0.00101 s⁻¹
- kon [1]: 154000 M⁻¹ s⁻¹
- binding result (Human TfR apical domain [6]): no binding
B4: anti-HER2-DI (antibody, human IgG1, kappa, V domains shown)
VH: QVQLQQPGAELVRPGASVKLSCKASGYSFTGYWMNWLKQRPGQGLEWIGMIHPSDSEIRANQKFRDKATLTVDKSSTTAYMQLSSPTSEDSAVYYCARGTYDGGFEYWGQGTTLTVSS
VL: DIVLTQSPASLVVSLGQRATISCRASQSVSGSRFTYMHWYQQKPGQPPKLLIKYASILESGVPARFSGGGSGTDFTLNIHPVEEDDTATYYCQHSWEIPPWTFGGGTKLEIKR
